From publication PMC6555819, “Comprehensive study of nuclear receptor DNA binding provides a revised framework for understanding receptor specificity”

B1: NRC3_random_hg19_107_o1 (dsDNA)
DNA 1: GCCTCAGGCTGAGTTGTGGTAGTGTAATCATAGCTCGCGATTGACAGCGTAGAATGAAGG
DNA 2: CCTTCATTCTACGCTGTCAATCGCGAGCTATGATTACACTACCACAACTCAGCCTGAGGC
B2: NRC3_wobSeed89_DR3_C26G_o1 (dsDNA)
DNA 1: GCCTATGTAGGTTAAGGGGGTCATTGAGTTTGAAAGGCGATTGACAGCGTAGAATGAAGG
DNA 2: CCTTCATTCTACGCTGTCAATCGCCTTTCAAACTCAATGACCCCCTTAACCTACATAGGC
B3: NRC3_random_hg19_461_o1 (dsDNA)
DNA 1: GCGCCTGACTCCAGCCCACAGGCTGGGAGTGGAAGTGCGATTGACAGCGTAGAATGAAGG
DNA 2: CCTTCATTCTACGCTGTCAATCGCACTTCCACTCCCAGCCTGTGGGCTGGAGTCAGGCGC
B4: NRC3_random_hg19_3_o1 (dsDNA)
DNA 1: GCGCCAGAGGTGGAATGATATGATATGTCTCTGTGTGCGATTGACAGCGTAGAATGAAGG
DNA 2: CCTTCATTCTACGCTGTCAATCGCACACAGAGACATATCATATCATTCCACCTCTGGCGC
B5: NRC3_random_hg19_358_o1 (dsDNA)
DNA 1: GCCTAGCAGCAACCAACCACAATGGCAAGGATGTAGGCGATTGACAGCGTAGAATGAAGG
DNA 2: CCTTCATTCTACGCTGTCAATCGCCTACATCCTTGCCATTGTGGTTGGTTGCTGCTAGGC
B6: NRC3_random_hg19_353_o1 (dsDNA)
DNA 1: GCATAGAACTTAACTACCACCTCTCATTACCTGGAGGCGATTGACAGCGTAGAATGAAGG
DNA 2: CCTTCATTCTACGCTGTCAATCGCCTCCAGGTAATGAGAGGTGGTAGTTAAGTTCTATGC
B7: NRC3_random_hg19_251_o1 (dsDNA)
DNA 1: GCCTGTGGAATCCAACATGCCAAATGCTTGCTTGAGGCGATTGACAGCGTAGAATGAAGG
DNA 2: CCTTCATTCTACGCTGTCAATCGCCTCAAGCAAGCATTTGGCATGTTGGATTCCACAGGC
B8: NRC3_random_hg19_115_o1 (dsDNA)
DNA 1: GCATCACCTGAGGCCAGGAATTCGAACCAGCATGGCGCGATTGACAGCGTAGAATGAAGG
DNA 2: CCTTCATTCTACGCTGTCAATCGCGCCATGCTGGTTCGAATTCCTGGCCTCAGGTGATGC
B9: NRC3_random_hg19_55_o1 (dsDNA)
DNA 1: GCTTGAACGCCTGCTTTGTGCTGATGCAGATCCAGAGCGATTGACAGCGTAGAATGAAGG
DNA 2: CCTTCATTCTACGCTGTCAATCGCTCTGGATCTGCATCAGCACAAAGCAGGCGTTCAAGC
B10: NRC3_random_hg19_154_o1 (dsDNA)
DNA 1: GCAAGCATAGCTTTGAGAGCAGTAAAGTGGTTCATTGCGATTGACAGCGTAGAATGAAGG
DNA 2: CCTTCATTCTACGCTGTCAATCGCAATGAACCACTTTACTGCTCTCAAAGCTATGCTTGC
B11: NRC3_wobSeed123_DR5_G26A_o1 (dsDNA)
DNA 1: GCCCTCGGAGGACAACAGGAGGTCAAAGCTGCCAGAGCGATTGACAGCGTAGAATGAAGG
DNA 2: CCTTCATTCTACGCTGTCAATCGCTCTGGCAGCTTTGACCTCCTGTTGTCCTCCGAGGGC
B12: NRC3_wobSeed124_DR5_C13G_o1 (dsDNA)
DNA 1: GCCCTACTGGGCGATTCAGAGGTCATTGATCATATGGCGATTGACAGCGTAGAATGAAGG
DNA 2: CCTTCATTCTACGCTGTCAATCGCCATATGATCAATGACCTCTGAATCGCCCAGTAGGGC
B13: NRC3_random_hg19_426_o1 (dsDNA)
DNA 1: GCTGGAATCCTAGTGCTTTGGGAGGCTGAGGCTGGAGCGATTGACAGCGTAGAATGAAGG
DNA 2: CCTTCATTCTACGCTGTCAATCGCTCCAGCCTCAGCCTCCCAAAGCACTAGGATTCCAGC
B14: NRC3_random_hg19_438_o1 (dsDNA)
DNA 1: GCTGTCGCCATCAAGCTACCATTGACTTTCTTCACAGCGATTGACAGCGTAGAATGAAGG
DNA 2: CCTTCATTCTACGCTGTCAATCGCTGTGAAGAAAGTCAATGGTAGCTTGATGGCGACAGC
B15: NRC3_random_hg19_337_o1 (dsDNA)
DNA 1: GCGTATTGAGCATCTATGATCTGCCAGTTAGGCTGCGCGATTGACAGCGTAGAATGAAGG
DNA 2: CCTTCATTCTACGCTGTCAATCGCGCAGCCTAACTGGCAGATCATAGATGCTCAATACGC
B16: NRC3_random_hg19_161_o1 (dsDNA)
DNA 1: GCTCTGTGGCCTCGGCTCTCCAGGACTCGGAGGCTCGCGATTGACAGCGTAGAATGAAGG
DNA 2: CCTTCATTCTACGCTGTCAATCGCGAGCCTCCGAGTCCTGGAGAGCCGAGGCCACAGAGC
B17: NRC3_random_hg19_335_o1 (dsDNA)
DNA 1: GCATCTATGTGCATATGGAAGAAAGGAATGCAAGATGCGATTGACAGCGTAGAATGAAGG
DNA 2: CCTTCATTCTACGCTGTCAATCGCATCTTGCATTCCTTTCTTCCATATGCACATAGATGC
B18: NRC3_random_hg19_30_o1 (dsDNA)
DNA 1: GCTGGAATGCAGTGGCACGATCACACATCACTGCAAGCGATTGACAGCGTAGAATGAAGG
DNA 2: CCTTCATTCTACGCTGTCAATCGCTTGCAGTGATGTGTGATCGTGCCACTGCATTCCAGC
B19: NRC3_random_hg19_260_o1 (dsDNA)
DNA 1: GCGGAAGTCCTCTTTGCCACATTTCCAACAGATGGCGCGATTGACAGCGTAGAATGAAGG
DNA 2: CCTTCATTCTACGCTGTCAATCGCGCCATCTGTTGGAAATGTGGCAAAGAGGACTTCCGC
B20: NRC3_random_hg19_247_o1 (dsDNA)
DNA 1: GCGCATGCCACAGGACTGGTAGGCAGCTCCATCTGCGCGATTGACAGCGTAGAATGAAGG
DNA 2: CCTTCATTCTACGCTGTCAATCGCGCAGATGGAGCTGCCTACCAGTCCTGTGGCATGCGC
B21: NRC3_random_hg19_190_o1 (dsDNA)
DNA 1: GCGCCTCAATTCTAACTTGATTGCTTCCCTAGAGGCGCGATTGACAGCGTAGAATGAAGG
DNA 2: CCTTCATTCTACGCTGTCAATCGCGCCTCTAGGGAAGCAATCAAGTTAGAATTGAGGCGC
B22: NRC3_random_hg19_108_o1 (dsDNA)
DNA 1: GCTAGGAATGTGAGTTTCTCTAAGTTCTATTCCTGGGCGATTGACAGCGTAGAATGAAGG
DNA 2: CCTTCATTCTACGCTGTCAATCGCCCAGGAATAGAACTTAGAGAAACTCACATTCCTAGC
B23: NRC3_random_hg19_132_o1 (dsDNA)
DNA 1: GCCAATGCCAGCTACCAGGAGGCTGAGGTGTGAGAGGCGATTGACAGCGTAGAATGAAGG
DNA 2: CCTTCATTCTACGCTGTCAATCGCCTCTCACACCTCAGCCTCCTGGTAGCTGGCATTGGC

target: VDR:RXRa (Homo sapiens, UniProt P11473;P19793 full;full); assay: no ligand; PBM; 270 nM : 90 nM RXRa; PBS pH 7.4, 2% milk, 0.02% Triton X-100, 1 mM DTT, BSA, 0.4 mg/ml salmon testes DNA; details: tags: His kept;His cleaved; copies: 1;1; label: surface-attached array probe
Method in brief: (§1)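 Binding z-scores take random background probes as their reference. They come from custom Agilent 4×180K protein-binding microarrays incubated 1 h with ligand-free nuclear receptor dimers, with antibodies against each partner (one per run) detecting binding. Scanned fluorescence was regression-normalized.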

VDR:RXRa, sequence (P11473 whole entry, chain 1 of 2): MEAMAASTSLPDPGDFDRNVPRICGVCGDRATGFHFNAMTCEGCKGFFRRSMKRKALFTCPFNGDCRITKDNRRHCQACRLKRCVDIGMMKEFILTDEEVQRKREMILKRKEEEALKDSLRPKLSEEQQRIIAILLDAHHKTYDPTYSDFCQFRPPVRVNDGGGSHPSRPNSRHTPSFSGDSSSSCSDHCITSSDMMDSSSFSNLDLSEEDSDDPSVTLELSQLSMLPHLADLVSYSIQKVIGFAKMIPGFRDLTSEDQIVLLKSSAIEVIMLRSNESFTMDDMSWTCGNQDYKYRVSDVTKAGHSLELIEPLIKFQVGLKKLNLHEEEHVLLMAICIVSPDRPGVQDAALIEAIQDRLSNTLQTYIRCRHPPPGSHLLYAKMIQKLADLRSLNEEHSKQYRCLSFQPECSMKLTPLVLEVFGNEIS
VDR:RXRa, sequence (P19793 whole entry, chain 2 of 2): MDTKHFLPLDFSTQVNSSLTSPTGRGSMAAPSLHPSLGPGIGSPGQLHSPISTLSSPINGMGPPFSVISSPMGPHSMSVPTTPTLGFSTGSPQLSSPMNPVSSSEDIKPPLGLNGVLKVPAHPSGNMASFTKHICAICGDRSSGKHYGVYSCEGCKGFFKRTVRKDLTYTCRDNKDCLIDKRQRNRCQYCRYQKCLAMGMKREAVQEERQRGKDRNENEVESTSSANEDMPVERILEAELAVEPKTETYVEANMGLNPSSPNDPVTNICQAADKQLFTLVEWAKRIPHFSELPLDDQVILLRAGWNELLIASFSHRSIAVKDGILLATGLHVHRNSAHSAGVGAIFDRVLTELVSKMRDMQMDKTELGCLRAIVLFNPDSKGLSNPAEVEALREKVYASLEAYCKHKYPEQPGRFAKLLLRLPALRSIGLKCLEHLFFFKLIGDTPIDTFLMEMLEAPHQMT

Binder | binding signal
B1 | -0.64 PBM z-score against 500 random probes
B2 | 8.2 PBM z-score against 500 random probes
B3 | -1.25 PBM z-score against 500 random probes
B4 | -0.61 PBM z-score against 500 random probes
B5 | -0.81 PBM z-score against 500 random probes
B6 | 0.31 PBM z-score against 500 random probes
B7 | -0.19 PBM z-score against 500 random probes
B8 | -0.3 PBM z-score against 500 random probes
B9 | -0.59 PBM z-score against 500 random probes
B10 | -0.41 PBM z-score against 500 random probes
B11 | 3.35 PBM z-score against 500 random probes
B12 | 3.28 PBM z-score against 500 random probes
B13 | -0.9 PBM z-score against 500 random probes
B14 | -0.03 PBM z-score against 500 random probes
B15 | -0.54 PBM z-score against 500 random probes
B16 | -0.38 PBM z-score against 500 random probes
B17 | -0.62 PBM z-score against 500 random probes
B18 | -0.46 PBM z-score against 500 random probes
B19 | 0.14 PBM z-score against 500 random probes
B20 | -0.83 PBM z-score against 500 random probes
B21 | 0.11 PBM z-score against 500 random probes
B22 | 0.17 PBM z-score against 500 random probes
B23 | -0.75 PBM z-score against 500 random probes

target: FXR:RXRa (Homo sapiens, UniProt Q96RI1;P19793 full;full); assay: as above; details: tags: His kept;His cleaved; copies: 1;1; label: surface-attached array probe
Method in brief: as §1

FXR:RXRa, sequence (Q96RI1 whole entry, chain 1 of 2): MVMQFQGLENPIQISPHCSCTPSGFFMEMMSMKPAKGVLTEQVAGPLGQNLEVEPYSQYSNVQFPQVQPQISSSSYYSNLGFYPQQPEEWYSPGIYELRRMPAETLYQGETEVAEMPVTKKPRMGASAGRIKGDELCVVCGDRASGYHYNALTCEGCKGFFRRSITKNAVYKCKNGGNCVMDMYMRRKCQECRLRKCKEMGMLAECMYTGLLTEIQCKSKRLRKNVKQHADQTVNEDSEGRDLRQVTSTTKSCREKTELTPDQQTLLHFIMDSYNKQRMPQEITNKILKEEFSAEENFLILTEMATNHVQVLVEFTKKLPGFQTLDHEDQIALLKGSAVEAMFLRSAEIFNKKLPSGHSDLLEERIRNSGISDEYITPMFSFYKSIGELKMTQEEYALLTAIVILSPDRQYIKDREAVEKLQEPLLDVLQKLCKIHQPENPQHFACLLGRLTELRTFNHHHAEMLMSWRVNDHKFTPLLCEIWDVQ
FXR:RXRa, sequence (P19793 whole entry, chain 2 of 2): as the sequence (P19793 whole entry, chain 2 of 2) above

Binder | binding signal
B9 | -0.23 PBM z-score against 500 random probes
B21 | 0.46 PBM z-score against 500 random probes

target: RARg:RXRa (Homo sapiens, UniProt P13631;P19793 full;full); assay: as above; details: tags: His kept;His cleaved; copies: 1;1; label: surface-attached array probe
Method in brief: as §1

RARg:RXRa, sequence (P13631 whole entry, chain 1 of 2): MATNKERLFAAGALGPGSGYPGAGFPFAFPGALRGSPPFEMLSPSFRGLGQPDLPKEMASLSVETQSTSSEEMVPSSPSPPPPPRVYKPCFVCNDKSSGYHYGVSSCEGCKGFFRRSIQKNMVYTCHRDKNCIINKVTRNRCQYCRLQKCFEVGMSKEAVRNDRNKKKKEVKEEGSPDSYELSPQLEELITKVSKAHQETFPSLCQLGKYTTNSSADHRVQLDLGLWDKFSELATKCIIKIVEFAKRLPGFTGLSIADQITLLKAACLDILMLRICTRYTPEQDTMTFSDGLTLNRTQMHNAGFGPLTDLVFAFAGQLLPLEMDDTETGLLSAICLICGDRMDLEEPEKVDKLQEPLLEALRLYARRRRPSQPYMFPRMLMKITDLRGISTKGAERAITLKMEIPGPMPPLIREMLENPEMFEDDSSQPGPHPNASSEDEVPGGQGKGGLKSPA
RARg:RXRa, sequence (P19793 whole entry, chain 2 of 2): as the sequence (P19793 whole entry, chain 2 of 2) above

Binder | binding signal
B1 | -0.79 PBM z-score against 500 random probes
B5 | -0.41 PBM z-score against 500 random probes
B11 | 4.36 PBM z-score against 500 random probes
B22 | 0.22 PBM z-score against 500 random probes
B23 | -0.61 PBM z-score against 500 random probes

target: PPARa:RXRa (Homo sapiens, UniProt Q07869;P19793 full;full); assay: as above; details: tags: GST kept;His cleaved; copies: 1;1; label: surface-attached array probe
Method in brief: as §1

PPARa:RXRa, sequence (Q07869 whole entry, chain 1 of 2): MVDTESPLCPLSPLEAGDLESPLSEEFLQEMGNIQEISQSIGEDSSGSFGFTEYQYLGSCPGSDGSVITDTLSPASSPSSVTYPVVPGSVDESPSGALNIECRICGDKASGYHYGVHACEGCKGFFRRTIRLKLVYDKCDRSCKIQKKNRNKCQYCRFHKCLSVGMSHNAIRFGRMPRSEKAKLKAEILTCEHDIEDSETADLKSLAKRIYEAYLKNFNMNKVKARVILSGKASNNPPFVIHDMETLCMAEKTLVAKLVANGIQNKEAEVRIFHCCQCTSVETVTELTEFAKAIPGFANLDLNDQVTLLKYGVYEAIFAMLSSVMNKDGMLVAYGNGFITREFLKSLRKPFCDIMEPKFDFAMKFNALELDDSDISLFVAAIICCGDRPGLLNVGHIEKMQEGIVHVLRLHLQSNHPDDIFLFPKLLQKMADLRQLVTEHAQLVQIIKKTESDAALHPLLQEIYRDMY
PPARa:RXRa, sequence (P19793 whole entry, chain 2 of 2): as the sequence (P19793 whole entry, chain 2 of 2) above

Binder | binding signal
B2 | 6.55 PBM z-score against 500 random probes
B6 | -0.07 PBM z-score against 500 random probes
B8 | -0.52 PBM z-score against 500 random probes
B12 | 3.07 PBM z-score against 500 random probes
B13 | -0.97 PBM z-score against 500 random probes
B14 | 0.12 PBM z-score against 500 random probes
B19 | 0.42 PBM z-score against 500 random probes
